One may read the IC50 as the concentration at which inhibition is half-maximal.

Numbered stars: 1 amine (or outer) side, 2 acyl side, 3 side chain; on linkers, the order of the positions; unused ones are H or OH. Bridge positions count the residues as written; N and C are the ends. Side chains are listed from the residue outwards. Ends that are not written are not given here. * marks the point of attachment. C20 diacid = O=C(O)CCCCCCCCCCCCCCCCCCC(=O)*; γGlu = O=C(O)[C@H](CCC(=O)[*:2])N[*:1]; AEEA = NCCOCCOCC(=O)O

Results on five molecules are retold here after patent US20140087995A1 (published 2014).

Sequences and labels used below:
B1: N^α1-[(4S)-4-carboxy-4-(19-carboxynonadecanoylamino)butanoyl]-[Arg17,Pro21,Pro27,Arg34]-h-amylin (peptide)
peptide: KCNTATCATQRLANFLRHSSPNFGAIPSSTNVGRNTY
modifications: C20 diacid-gGlu on alpha amino group of N-terminal Lys 1; disulfide Cys2-Cys7; C-terminal amide (as human amylin)
notes: also called compound 39
B2: N^ε-[2-[2-[2-[[(4S)-4-carboxy-4-(19-carboxynonadecanoylamino)butanoyl]amino]ethoxy]ethoxy]acetyl]Lys[Arg1,Arg17,Pro21,Pro27,His35]-h-amylin (peptide)
peptide: K([AEEA-γGlu-C20 diacid])RCNTATCATQRLANFLRHSSPNFGAIPSSTNVGSHTY-NH2
modifications: disulfide 3-8; N-terminus assumed
SMILES: CC[C@H](C)[C@H](NC(=O)[C@H](C)NC(=O)CNC(=O)[C@H](Cc1ccccc1)NC(=O)[C@H](CC(N)=O)NC(=O)[C@@H]1CCCN1C(=O)[C@H](CO)NC(=O)[C@H](CO)NC(=O)[C@H](Cc1c[nH]cn1)NC(=O)[C@H](CCCNC(=N)N)NC(=O)[C@H](CC(C)C)NC(=O)[C@H](Cc1ccccc1)NC(=O)[C@H](CC(N)=O)NC(=O)[C@H](C)NC(=O)[C@H](CC(C)C)NC(=O)[C@H](CCCNC(=N)N)NC(=O)[C@H](CCC(N)=O)NC(=O)[C@@H](NC(=O)[C@H](C)NC(=O)[C@@H]1CSSC[C@H](NC(=O)[C@H](CCCNC(=N)N)NC(=O)[C@@H](N)CCCCNC(=O)COCCOCCNC(=O)CC[C@H](NC(=O)CCCCCCCCCCCCCCCCCCC(=O)O)C(=O)O)C(=O)N[C@@H](CC(N)=O)C(=O)N[C@@H]([C@@H](C)O)C(=O)N[C@@H](C)C(=O)N[C@@H]([C@@H](C)O)C(=O)N1)[C@@H](C)O)C(=O)N1CCC[C@H]1C(=O)N[C@@H](CO)C(=O)N[C@@H](CO)C(=O)N[C@H](C(=O)N[C@@H](CC(N)=O)C(=O)N[C@H](C(=O)NCC(=O)N[C@@H](CO)C(=O)N[C@@H](Cc1c[nH]cn1)C(=O)N[C@H](C(=O)N[C@@H](Cc1ccc(O)cc1)C(N)=O)[C@@H](C)O)C(C)C)[C@@H](C)O
notes: also called compound 45
B3: N^-1-[(4S)-4-carboxy-4-(19-carboxynonadecanoylamino)butanoyl]-Gly[Arg1,Arg17,Pro21,Pro27,His35]-h-amylin (peptide)
peptide: {C20 diacid-γGlu}-GRCNTATCATQRLANFLRHSSPNFGAIPSSTNVGSHTY-NH2
modifications: disulfide 3-8
SMILES: CC[C@H](C)[C@H](NC(=O)[C@H](C)NC(=O)CNC(=O)[C@H](Cc1ccccc1)NC(=O)[C@H](CC(N)=O)NC(=O)[C@@H]1CCCN1C(=O)[C@H](CO)NC(=O)[C@H](CO)NC(=O)[C@H](Cc1c[nH]cn1)NC(=O)[C@H](CCCNC(=N)N)NC(=O)[C@H](CC(C)C)NC(=O)[C@H](Cc1ccccc1)NC(=O)[C@H](CC(N)=O)NC(=O)[C@H](C)NC(=O)[C@H](CC(C)C)NC(=O)[C@H](CCCNC(=N)N)NC(=O)[C@H](CCC(N)=O)NC(=O)[C@@H](NC(=O)[C@H](C)NC(=O)[C@@H]1CSSC[C@H](NC(=O)[C@H](CCCNC(=N)N)NC(=O)CNC(=O)CC[C@H](NC(=O)CCCCCCCCCCCCCCCCCCC(=O)O)C(=O)O)C(=O)N[C@@H](CC(N)=O)C(=O)N[C@@H]([C@@H](C)O)C(=O)N[C@@H](C)C(=O)N[C@@H]([C@@H](C)O)C(=O)N1)[C@@H](C)O)C(=O)N1CCC[C@H]1C(=O)N[C@@H](CO)C(=O)N[C@@H](CO)C(=O)N[C@H](C(=O)N[C@@H](CC(N)=O)C(=O)N[C@H](C(=O)NCC(=O)N[C@@H](CO)C(=O)N[C@@H](Cc1c[nH]cn1)C(=O)N[C@H](C(=O)N[C@@H](Cc1ccc(O)cc1)C(N)=O)[C@@H](C)O)C(C)C)[C@@H](C)O
notes: also called compound 47
B4: N^-1-[(4S)-4-carboxy-4-(19-carboxynonadecanoylamino)butanoyl]-Gly[Arg1,Arg17,Pro21,Pro27]-h-amylin (peptide)
peptide: {C20 diacid-γGlu}-GRCNTATCATQRLANFLRHSSPNFGAIPSSTNVGSNTY-NH2
modifications: disulfide 3-8
SMILES: CC[C@H](C)[C@H](NC(=O)[C@H](C)NC(=O)CNC(=O)[C@H](Cc1ccccc1)NC(=O)[C@H](CC(N)=O)NC(=O)[C@@H]1CCCN1C(=O)[C@H](CO)NC(=O)[C@H](CO)NC(=O)[C@H](Cc1c[nH]cn1)NC(=O)[C@H](CCCNC(=N)N)NC(=O)[C@H](CC(C)C)NC(=O)[C@H](Cc1ccccc1)NC(=O)[C@H](CC(N)=O)NC(=O)[C@H](C)NC(=O)[C@H](CC(C)C)NC(=O)[C@H](CCCNC(=N)N)NC(=O)[C@H](CCC(N)=O)NC(=O)[C@@H](NC(=O)[C@H](C)NC(=O)[C@@H]1CSSC[C@H](NC(=O)[C@H](CCCNC(=N)N)NC(=O)CNC(=O)CC[C@H](NC(=O)CCCCCCCCCCCCCCCCCCC(=O)O)C(=O)O)C(=O)N[C@@H](CC(N)=O)C(=O)N[C@@H]([C@@H](C)O)C(=O)N[C@@H](C)C(=O)N[C@@H]([C@@H](C)O)C(=O)N1)[C@@H](C)O)C(=O)N1CCC[C@H]1C(=O)N[C@@H](CO)C(=O)N[C@@H](CO)C(=O)N[C@H](C(=O)N[C@@H](CC(N)=O)C(=O)N[C@H](C(=O)NCC(=O)N[C@@H](CO)C(=O)N[C@@H](CC(N)=O)C(=O)N[C@H](C(=O)N[C@@H](Cc1ccc(O)cc1)C(N)=O)[C@@H](C)O)C(C)C)[C@@H](C)O
notes: also called compound 46
B5: N^ε1-[(4S)-4-carboxy-4-(19-carboxynonadecanoylamino)butanoyl]-[Arg17,Pro21,Pro27]-h-amylin (peptide)
peptide: K([γGlu-C20 diacid])CNTATCATQRLANFLRHSSPNFGAIPSSTNVGSNTY-NH2
modifications: disulfide 2-7; N-terminus assumed
SMILES: CC[C@H](C)[C@H](NC(=O)[C@H](C)NC(=O)CNC(=O)[C@H](Cc1ccccc1)NC(=O)[C@H](CC(N)=O)NC(=O)[C@@H]1CCCN1C(=O)[C@H](CO)NC(=O)[C@H](CO)NC(=O)[C@H](Cc1c[nH]cn1)NC(=O)[C@H](CCCNC(=N)N)NC(=O)[C@H](CC(C)C)NC(=O)[C@H](Cc1ccccc1)NC(=O)[C@H](CC(N)=O)NC(=O)[C@H](C)NC(=O)[C@H](CC(C)C)NC(=O)[C@H](CCCNC(=N)N)NC(=O)[C@H](CCC(N)=O)NC(=O)[C@@H](NC(=O)[C@H](C)NC(=O)[C@@H]1CSSC[C@H](NC(=O)[C@@H](N)CCCCNC(=O)CC[C@H](NC(=O)CCCCCCCCCCCCCCCCCCC(=O)O)C(=O)O)C(=O)N[C@@H](CC(N)=O)C(=O)N[C@@H]([C@@H](C)O)C(=O)N[C@@H](C)C(=O)N[C@@H]([C@@H](C)O)C(=O)N1)[C@@H](C)O)C(=O)N1CCC[C@H]1C(=O)N[C@@H](CO)C(=O)N[C@@H](CO)C(=O)N[C@H](C(=O)N[C@@H](CC(N)=O)C(=O)N[C@H](C(=O)NCC(=O)N[C@@H](CO)C(=O)N[C@@H](CC(N)=O)C(=O)N[C@H](C(=O)N[C@@H](Cc1ccc(O)cc1)C(N)=O)[C@@H](C)O)C(C)C)[C@@H](C)O
notes: also called compound 48

One test deals with T1, human calcitonin receptor (human, UniProt P30988 25-474).
T1 construct: whole, on cells; also called hCTR; hCT
T1 sequence (looked up): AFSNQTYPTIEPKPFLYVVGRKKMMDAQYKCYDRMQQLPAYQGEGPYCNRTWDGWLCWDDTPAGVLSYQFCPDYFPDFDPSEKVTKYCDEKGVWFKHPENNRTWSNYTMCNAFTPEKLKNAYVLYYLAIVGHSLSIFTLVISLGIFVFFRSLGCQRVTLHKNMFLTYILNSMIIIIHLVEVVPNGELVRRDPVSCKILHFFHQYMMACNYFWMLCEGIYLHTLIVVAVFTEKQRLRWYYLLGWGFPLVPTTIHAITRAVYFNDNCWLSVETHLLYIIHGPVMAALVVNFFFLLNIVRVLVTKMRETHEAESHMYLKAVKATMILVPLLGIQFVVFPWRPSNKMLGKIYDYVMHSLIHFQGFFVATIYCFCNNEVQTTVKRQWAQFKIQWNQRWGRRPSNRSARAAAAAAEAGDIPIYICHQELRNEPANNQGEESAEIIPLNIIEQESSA
The test is described as follows: SPA competition with 125I-calcitonin, membranes of BHK hCTR cells (Assay VII). As for the experimental part:
Membranes were prepared in the following way; the cells were rinsed with PBS and incubated with Versene for approximately 5 min before harvesting. The cells were flushed with PBS and the cell-suspension was centrifuged for 5 min at 1000 rpm. Cells were homogenized (Ultrathurrax) in a buffer containing 20 mM Na-HEPES and 10 mM EDTA (pH 7.4) and centrifuged at 20.000 rpm for 15 min. The resulting pellet was resuspended, homogenized and centrifuged (20.000 rpm, 15 min) in a buffer containing 20 mM Na-HEPES and 0.1 mM EDTA (pH 7.4, buffer 2). The resulting pellet was resuspended in buffer 2 and protein concentration was measured (BCA protein Assay, Pierce). The homogenate was kept cold during the whole procedure. The membranes were kept at −80° C. until use. Assay was performed in a 384 well Optiplate (PerkinElmer) in a total volume of 40 ul. Membranes were mixed with SPA beads. Final concentration of membranes 35 ng/μL final and Final concentration of SPA beads was 0.05 mg/well. Test-compounds were dissolved in DMSO and further diluted in assay buffer (50 mM Hepes, pH 7.4, 1 mM CaCl2, 5 mM MgCl₂, 0.1% OA and 0.02% Tween20). […] The final mixture was incubated for 120 min with shaking at 400 rpm at 25° C. prior to centrifugation (1500 rpm, 10 min). Samples were analyzed on TopCounter™ (Packard). The […] was calculated using (one site binding competition analysis) GraphPad Prism5 as a measure of receptor affinity.
Consider B1, for which the IC50 is 19.3 nM.

A further test concerns the target T2, human calcitonin receptor (human, UniProt P30988 25-474).
T2 construct: whole, on cells; Used as cell membranes prepared from the transfected BHK cells (Assay VII), not as intact cells; also called hCTR; hCT
T2 sequence (looked up): T1 sequence (looked up)
The test is described as follows: SPA competition against 125I-calcitonin, membranes with human calcitonin receptor (Assay VII). The procedure, abridged:
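BHK hCTR membranes 35 ng/μL + SPA beads 0.05 mg/well; buffer 50 mM Hepes pH 7.4, 1 mM CaCl2, 5 mM MgCl₂, 0.1% OA, 0.02% Tween20. 120 min, 25° C., shaking. Scintillation count; IC50 by one-site binding competition.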
Consider B2, for which the IC50 was found to be 14.8 nM.

Consider B3, for which the IC50 came to 15.5 nM. As for B4, the IC50 came to 9.53 nM. Same read-out and setting: with B5 the figure was 30.9 nM.
